Legend:
[1] = target: GKL (quorum-quenching lactonase from Geobacillus kaustophilus) (Geobacillus kaustophilus, UniProt Q5KZU5, E101G/R230C/D266N)
[2] = system: CCCCCC(=O)CC(=O)N[C@H]1CCOC1=O; assay: purified protein; settings: pH 8.3; 37.0 °C
[3] = system: CCCC(=O)CC(=O)N[C@H]1CCOC1=O; assay: purified protein; settings: pH 8.3; 37.0 °C

CCCC(=O)NC1CCOC1=O (racemic) [C4-HSL, N-butyryl-L-homoserine lactone]
X-ray crystal structure, 2.2 Å [1]: its catalytically inactive variant E101G/R230C/D266N with the quorum-molecule C4-HSL bound in the active site

GKL (quorum-quenching lactonase from Geobacillus kaustophilus) (Geobacillus kaustophilus HTA426)
Km [2]: 5.5 ± 2.1 mM
kcat/Km [2]: 38 M⁻¹ s⁻¹

GKL (quorum-quenching lactonase from Geobacillus kaustophilus) (Geobacillus kaustophilus HTA426; E101G/R230C)
Km [2]: 3.0 ± 0.4 mM
kcat/Km [2]: 700 M⁻¹ s⁻¹
Km [3]: 22 ± 12 mM
kcat/Km [3]: 50 M⁻¹ s⁻¹

GKL (quorum-quenching lactonase from Geobacillus kaustophilus) (Geobacillus kaustophilus HTA426; E101N)
Km [2]: 4.0 ± 3.2 mM
kcat/Km [2]: 53 M⁻¹ s⁻¹

Reference: publication PMC3629905 (Biochemistry, 2013)
